The record followed here is patent US20250034621, “LOCKED APTAMER HAIRPIN INTEGRATED HYBRIDIZATION CHAIN REACTION FOR RAPID, INSTRUMENT-FREE BIOMARKER DETECTION” (The Texas A&m University System, published 2025).

The target in the series is cardiac troponin I (cTnI) (UniProt P19429 P19429:2-210). As to the kind of experiment: cTnI-dependent opening of aptamer on magnetic particles, supernatant fluorescence of tagged HTG-H1 falls with cTnI; 0.5 ng/mL not distinguishable from blank; native PAGE HCR products also cTnI-dependent (p77, FIG. 6B); SERRS LOD 0.5 pg/mL in serum (p85), colorimetric hyperbranched HCR LOD 0.117 ng/mL (p104); high-salt buffer 20 mM Tris pH 7.6, 1000 mM NaCl, 5 mM KCl, 2 mM MgCl2, 1 mM CaCl2. Particulars: tags: Genscript (SERRS studies); label: biotin (on streptavidin magnetic particles).
Chain of cardiac troponin I (cTnI) (P19429 2-210, one chain of several): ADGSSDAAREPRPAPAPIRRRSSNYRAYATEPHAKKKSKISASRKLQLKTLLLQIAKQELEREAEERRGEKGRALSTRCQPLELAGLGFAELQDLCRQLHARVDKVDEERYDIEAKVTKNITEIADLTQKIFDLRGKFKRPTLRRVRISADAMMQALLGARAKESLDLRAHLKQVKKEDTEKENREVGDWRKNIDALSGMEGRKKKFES

B1: locked Tro4 aptamer-initiator (Tro4 + A8 spacer + HCR initiator + blocker) (ssDNA)
DNA: TTTTTCGTGCAGTACGCAACCTTTCTCATGCGCTGCCCCTCTTAAAAAAAAGCAGATCCTAAGCCGCACCCAATTAAGGGGCAGCGCATGAGAAAGGTTCCGTA
With B1, the binding result is reported as “binds”.
